In PMC2810746 (Cell host & microbe, 2009):

Target: the molecule itself
Assay: immunoblotting of unboiled samples

B1: adenovirus penton base, recombinant, expressed in COS-7 cells (natural protein)
chain: MRRAAMYEEGPPPSYESVVSAAPVAAALGSPFDAPLDPPFVPPRYLRPTGGRNSIRYSELAPLFDTTRVYLVDNKSTDVASLNYQNDHSNFLTTVIQNNDYSPGEASTQTINLDDRSHWGGDLKTILHTNMPNVNEFMFTNKFKARVMVSRLPTKDNQVELKYEWVEFTLPEGNYSETMTIDLMNNAIVEHYLKVGRQNGVLESDIGVKFDTRNFRLGFDPVTGLVMPGVYTNEAFHPDIILLPGCGVDFTHSRLSNLLGIRKRQPFQEGFRITYDDLEGGNIPALLDVDAYQASLKDDTEQGGGGAGGSNSSGSGAEENSNAAAAAMQPVEDMNDHAIRGDTFATRAEEKRAEAEAAAEAAAPAAQPEVEKPQKKPVIKPLTEDSKKRSYNLISNDSTFTQYRSWYLAYNYGDPQTGIRSWTLLCTPDVTCGSEQVYWSLPDMMQDPVTFRSTRQISNFPVVGAELLPVHSKSFYNDQAVYSQLIRQFTSLTHVFNRFPENQILARPPAPTITTVSENVPALTDHGTLPLRNSIGGVQRVTITDARRRTCPYVYKALGIVSPRVLSSRTF
stoichiometry N: 5
